Reference: patent US20220162305A1 (IMCHECK THERAPEUTICS, published 2022)
Blank lines part the entries; values can stand above or below the binder they belong to.

Experiments:
[1] = target: T1, recombinant human BTN2A1-Fc fusion protein (GTP Technologies) (human, UniProt Q7KYR7 29-248, biotinylated with EZ-Link NHS-PEG4 biotin for the Octet affinity assay (sites not given)); assay: ELISA, huBTN2A1-Fc coated at 5 µg/mL, mAb titrated, goat anti-mouse IgG HRP, absorbance at 405 nm
T1 construct: Bought soluble Fc fusion; Used biotinylated in Octet, unmodified in ELISA and cross-linking MS; also called rhBTN2A1-Fc; huBTN2A1-Fc; not shown: Fc part of the bought fusion protein
T1 sequence: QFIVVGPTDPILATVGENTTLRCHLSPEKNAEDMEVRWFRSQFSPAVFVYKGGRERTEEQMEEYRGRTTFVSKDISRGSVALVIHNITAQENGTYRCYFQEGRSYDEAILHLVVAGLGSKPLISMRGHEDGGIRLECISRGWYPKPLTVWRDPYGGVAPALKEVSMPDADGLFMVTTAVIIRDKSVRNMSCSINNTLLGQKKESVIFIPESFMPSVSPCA

[2] = target: T1, recombinant human BTN2A1-Fc fusion …; assay: BLI (Octet Red96), biotinylated rhBTN2A1-Fc on streptavidin sensors, chimeric mAb as analyte, 30 °C, 1:1 model
Description: Affinity and binning experiments were performed on an Octet Red96 platform (Fortebio/PALL), system based on Bio-layer interferometry (BLI) technology. For affinity experiments, recombinant human (rh)BTN2A1-Fc (GTP) was biotinylated using EZ-Link™ NHS-PEG4 Biotinylation Kit according to manufacturer's instructions, and biotinylated rhBTN2A2-Fc was purchased from R&D Systems. […] For BTN2A2 affinity assays, chimeric anti-BTN2A antibodies were loaded into FAB2G sensors (anti human CH1; Fortebio) as described above, and biotinylated rhBTN2A2-Fc was used as analyte. In both cases, analytes remained in solution and their working concentrations were diluted in Kinetic Buffer 10× (ForteBio). […] All runs (including loading, equilibration, association/dipping of sensors into analyte, dissociation and regeneration) were performed at 30° C. with shaking 1000 rpm. Analysis was performed using a 1:1 or 2:1 Langmuir model (for BTN2A1 or BTN2A2, respectively) calculated by Octet software, which allowed a better fitting calculation.

[3] = target: T2, biotinylated recombinant human BTN2A2-Fc (R&D Systems) (human, UniProt Q8WVV5 33-265, limits assumed, biotinylated (sites not given)); assay: BLI (Octet Red96), chimeric mAb on FAB2G sensors, biotinylated rhBTN2A2-Fc as analyte, 30 °C, 2:1 model
T2 construct: Bought soluble Fc fusion; also called rhBTN2A2-Fc; not shown: Fc part of the bought fusion protein
T2 sequence: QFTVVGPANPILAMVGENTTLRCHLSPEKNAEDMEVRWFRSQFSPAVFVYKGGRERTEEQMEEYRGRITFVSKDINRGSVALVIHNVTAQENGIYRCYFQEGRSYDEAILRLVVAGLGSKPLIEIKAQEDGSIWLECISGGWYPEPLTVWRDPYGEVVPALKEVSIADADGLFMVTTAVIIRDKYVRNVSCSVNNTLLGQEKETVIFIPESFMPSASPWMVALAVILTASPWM

[4] = target: T3, human BTN2A1-CFP fusion protein expressed on HEK-293T BTN2 KO cells (human, UniProt Q7KYR7 29-527); assay: flow cytometry, MFI on CFP+ HEK-293T BTN2 KO cells transfected with BTN2A1-CFP, 5 ng/mL to 75 µg/mL mAb
T3 construct: not shown: CFP tag; printed as 'CFP(Nter)-fusion' and as 'BTN2A1-CFP'
T3 sequence: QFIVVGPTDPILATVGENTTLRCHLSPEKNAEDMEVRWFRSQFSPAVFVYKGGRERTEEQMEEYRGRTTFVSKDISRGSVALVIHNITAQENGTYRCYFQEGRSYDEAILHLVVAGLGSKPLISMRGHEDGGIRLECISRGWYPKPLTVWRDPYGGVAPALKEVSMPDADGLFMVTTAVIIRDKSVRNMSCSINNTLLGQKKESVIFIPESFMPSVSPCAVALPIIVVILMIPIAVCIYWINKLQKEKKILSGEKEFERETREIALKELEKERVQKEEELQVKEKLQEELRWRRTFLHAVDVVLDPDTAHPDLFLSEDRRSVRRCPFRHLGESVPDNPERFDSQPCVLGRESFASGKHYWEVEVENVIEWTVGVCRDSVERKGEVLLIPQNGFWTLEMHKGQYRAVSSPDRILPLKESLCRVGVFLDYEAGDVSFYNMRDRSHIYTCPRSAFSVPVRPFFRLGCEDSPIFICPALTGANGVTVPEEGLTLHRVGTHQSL

[5] = target: T2, biotinylated recombinant human …; assay: BLI (Octet Red96), chimeric mAb on FAB2G sensors, biotinylated rhBTN2A2-Fc as analyte
Description: After generation of the reference anti-BTN2A antibodies in chimeric IgG1 format, affinities for the 2 different isoforms of this target (BTN2A1 and BTN2A2) were evaluated and competition assays were performed to determine whether these mAbs recognized the same epitope region of BTN2A1. Affinity and binning experiments were performed on an Octet Red96 platform (Fortebio/PALL), system based on Bio-layer interferometry (BLI) technology. For affinity experiments, recombinant human (rh)BTN2A1-Fc (GTP) was biotinylated using EZ-Link™ NHS-PEG4 Biotinylation Kit according to manufacturer's instructions, and biotinylated rhBTN2A2-Fc was purchased from R&D Systems. […] For BTN2A2 affinity assays, chimeric anti-BTN2A antibodies were loaded into FAB2G sensors (anti human CH1; Fortebio) as described above, and biotinylated rhBTN2A2-Fc was used as analyte. In both cases, analytes remained in solution and their working concentrations were diluted in Kinetic Buffer 10× (ForteBio). […] All runs (including loading, equilibration, association/dipping of sensors into analyte, dissociation and regeneration) were performed at 30° C. with shaking 1000 rpm. Analysis was performed using a 1:1 or 2:1 Langmuir model (for BTN2A1 or BTN2A2, respectively) calculated by Octet software, which allowed a better fitting calculation.

EC50 [1]: 0.82 nM
Kd [2]: 0.041 nM
Kd [3]: 4.4 nM
B1: chimeric anti-BTN2A mAb1 (101G5), chimeric IgG1 format (antibody, V domains shown)
VH: EVQLQQSGPELVKPGASVKISCKASGYSFTVYYMLWVKQSPEKSLEWIGEINPSTGGTTYNQKFKAKATLTVDKSSSTAYMQLKSLTSEDSAVYYCARGPSFYALDYWGQGTSVTVSS
VL: EIVLTQSPTTMAASPGEKITITCSATSSISSNYLHWYRHKPGFSPKLLIYRTSNLASGVPGRFSGSGSGTSYSLTIGTMEAEDVATYYCQQGSSIPRTFGGGTKLEIK
notes: Chimeric IgG1 (isotype control human IgG1), made in HEK-293 cells; also called anti-BTN2A 101G5

EC50 [4]: 0.32 µg/mL
B2: purified anti-BTN2A1 107G3 mAb (mouse hybridoma antibody) (antibody, V domains shown)
VH: QVQLKESGPGLVAPSQSLSITCTVSGFSLTNYVISWVRQPPGKGLEWLGVIWTGGDTNYNSALKSRLSISKDNSKSQVFLKMNSLQTGDTARYYCARGGQLGLRGYWGQGTLVTVSA
VL: DIVLTQSPASLAVSLGQRATISCRASKTVSSSGYSYMHWYQQKPGQPPKLLIYLASNLESGVPARFSGSGSGTDFTLNIHPVEEEDAATYYCQHSRDLPYAFGGGTKLEIK
notes: Mouse antibody purified from hybridoma; mouse IgG1 served as its isotype control; also called anti-BTN2A1 mAb 107G3

EC50 [1]: 0.56 nM
binding result [5]: no binding (tested: 200 nM)
Kd [2]: 0.41 nM
B3: chimeric anti-BTN2A mAb2 (107G3), chimeric IgG1 format (antibody, V domains shown)
VH: B2 VH
VL: B2 VL
notes: Murine VH and VK cloned into heavy and light chain expression vectors, chimeric IgG1 (isotype control human IgG1), made in HEK-293 cells; also called anti-BTN2A 107G3
